The source of these data is patent US20130130288A1.

For orientation: Kd means the equilibrium constant for the complex coming apart. Low readings indicate tighter binding, high ones weaker binding. As a reminder, the EC50 is the concentration that produces a half-maximal response. Low values mean an effect from little substance, high ones a need for much substance.

One assay addresses Aβ1-20 peptide. As to the kind of experiment: solution-phase equilibrium titration, free antibody read by ELISA on ADDL-coated plate, GRAFIT fit.
For another assay, the target named is Aβ1-40 monomer. The description is as above.
Assay [1] deals with amyloid β-derived diffusible ligands (ADDLs), oligomers of Aβ1-42. The description is as above.
The target in assay [2] is fibrillar Aβ (Aβ1-42 fibrils). The description is as above.
The target in assay [3] is biotinylated ADDLs. The assay is described as follows: ELISA on coated antigen, chemiluminescence; antibody stored 1 month at 40°. For orientation: In an ELISA, binding on a coated surface is turned into a signal by an enzyme label.
In assay [4] the target is biotinylated ADDLs. As to the kind of experiment: ELISA on coated antigen, chemiluminescence; antibody stored 1 month at 25°.
The target in assay [5] is biotinylated ADDLs. As to the kind of experiment: ELISA on coated antigen, chemiluminescence; antibody stored 1 month at 4°.
A further assay deals with Aβ1-42 monomer. As to the kind of experiment: ELISA, IgG2 antibodies.
In assay [6] the target is biotinylated ADDLs. As to the kind of experiment: ELISA on coated antigen, chemiluminescence; antibody at 0 timepoint.

Aβ1-20 peptide, sequence (peptide, as listed by the source): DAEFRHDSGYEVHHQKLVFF

Consider WO-2 (antibody), for which the Kd in the assay with Aβ1-20 peptide was 19.3 nM; in the assay with Aβ1-40 monomer, 6.15 nM; in [1] it was 0.57 nM; in [2] it was 1.15 nM.

With anti-ADDL antibody 19.3, the EC50 with biotinylated ADDLs [3] was 5.9 nM; in the assay with biotinylated ADDLs [4], 2.1 nM; with biotinylated ADDLs [5], 1.7 nM; with Aβ1-42 monomer it was 18 nM; in the assay with biotinylated ADDLs [6], 1.1 nM.
